Reference: publication doi:10.1101/2024.12.02.626349 (bioRxiv, 2024)

Target: ^15N-labeled wild-type untagged ubiquitin (UniProt P0CG48 1-76, ^15N-labeled)
Assay: NMR titration

- Kd: 124 µM
B1: 6xHis-tagged UBR4-UBL (residues 4340-4463) (domain or fragment)
chain: YPEENEVTEFFVTLEKDPQQEDFLQGRMPGNPYSSNEPGIGPLMRDIKNKICQDCDLVALLEDDSGMELLVNNKIISLDLPVAEVYKKVWCTTNEGEPMRIVYRMRGLLGDATEEFIESLDSTT
